Results taken from patent US20220089725A1.

What was measured:
[1] = target: human FCMR on blood cells (human) (UniProt O60667); test: flow cytometry of fresh human whole blood, isotype control row of the right (3F9) panel; gated subset not stated; FMO row reads 24.7
[2] = target: human FCMR on blood cells (human) (UniProt O60667); test: flow cytometry of fresh human whole blood, isotype control row of the left (2A5) panel; gated subset not stated; FMO row reads 24.7
[3] = target: human FCMR on blood cells (human) (UniProt O60667); test: flow cytometry of fresh human whole blood, gated CD3+CD4+ T cells, aToso 2A5 : AF647, left panel
[4] = target: human FCMR on blood cells (human) (UniProt O60667); test: flow cytometry of fresh human whole blood, gated CD19+ B cells, aToso 2A5 : AF647, left panel
[5] = target: human FCMR on blood cells (human) (UniProt O60667); test: flow cytometry of fresh human whole blood, gated CD3+CD8+ T cells, aToso 2A5 : AF647, left panel
[6] = target: recombinant human FCMR-Fc (human) (UniProt O60667); test: SPR (Biacore), 25 C, antibody immobilised, FCMR-Fc titrated at 500 to 0 nM

Sequence of UniProt O60667 (O60667 17-390): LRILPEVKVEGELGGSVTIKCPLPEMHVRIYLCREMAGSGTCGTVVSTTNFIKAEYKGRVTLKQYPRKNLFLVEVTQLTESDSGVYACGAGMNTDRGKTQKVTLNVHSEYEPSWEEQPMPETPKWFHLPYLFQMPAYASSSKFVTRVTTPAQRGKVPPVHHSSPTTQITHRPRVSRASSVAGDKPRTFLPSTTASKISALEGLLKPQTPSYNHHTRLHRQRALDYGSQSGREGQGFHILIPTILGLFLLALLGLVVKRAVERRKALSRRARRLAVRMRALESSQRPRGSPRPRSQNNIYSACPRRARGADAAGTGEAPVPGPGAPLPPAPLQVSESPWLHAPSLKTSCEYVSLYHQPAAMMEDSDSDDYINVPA

**Q.** With Isotype Control (antibody) as the molecule, how does the mean fluorescence intensity [1] read?
**A.** 25.6

**Q.** And the mean fluorescence intensity [2]?
**A.** 25.6

B1: FCMR 2A5 antibody (antibody, V domains shown)
VH: EVQLVESGGDLVKPGGSLKLSCAASGFTFSSYGMSWVRQTPDKRLEWVATINSGGSSIYYPDSVKGRFTISRDNAKNTLYLQMSSLKSEDTAMYYCARHNYDSSYRYAMDYWGQGTSVTVSS
VL: DIKMTQSPSSMYASLGERVTITCKASQDINNFLSWFQQKPGKSPKTLIYRANGLVDGVPSRFSGSGSGQDYSLTISSLEYEDMGIYYCLQYDEFPPTFGGGTKLEFKR
**Q.** B1 was tested. Which mean fluorescence intensity [3] did it give?
**A.** 247

**Q.** And the mean fluorescence intensity [4]?
**A.** 960

**Q.** And the mean fluorescence intensity [5]?
**A.** 414

**Q.** And the Kd [6]?
**A.** 7.21 nM

**Q.** And the koff [6]?
**A.** 0.000247 s⁻¹

**Q.** And the kon [6]?
**A.** 34700 M⁻¹ s⁻¹
